Experiment [1] deals with Microtubules polymerised from tubulin protein (T240; Cytoskeleton), paclitaxel-stabilised (UniProt P02550). Briefly: co-sedimentation.
Experiment [2] deals with mEGFP–Daple FL (full-length mouse Daple, mEGFP(A206K)-Daple-Flag) (mouse) (UniProt Q6VGS5). Kind of experiment: single-molecule photobleaching steps and spot intensities.
The target in experiment [3] is mEGFP–Daple FL ΔCT (mouse Daple lacking the CT domain) (mouse). The experiment is described as above.
The target of experiment [4] is mEGFP–Daple NT (N-terminal domain of mouse Daple) (mouse). The description is as above.

A word on the Kd: it is the free concentration of one partner at which half of the binding sites on the other are occupied at equilibrium, for simple one-to-one binding. High values mean a looser complex, low ones a tighter complex. Consider “mEGFP–Daple FL (full-length mouse Daple, mEGFP(A206K)-Daple-Flag) (from UniProt Q6VGS5 1-2009) (natural protein)”, for which, in experiment [1], the dissociation constant (Kd) stood at 1460 nM.
As usually defined, the stoichiometry N is a count of units in the complex or per binding partner. With “mEGFP–Daple FL (full-length mouse Daple, mEGFP(A206K)-Daple-Flag), Q6VGS5 1-2009”, the stoichiometry N in experiment [2] came to 2.
In turn, “mEGFP–Daple FL ΔCT (mouse Daple lacking the CT domain) (domain or fragment)” gave a stoichiometry N in experiment [3] of 2.
The substance “mEGFP–Daple NT (N-terminal domain of mouse Daple) (domain or fragment)” showed a stoichiometry N in experiment [4] of 2.

The values above are taken from article PMC8094116.
